Experimental data as given in the nanobody polyreactivity screen of Harvey et al. (2022).

Experiment: yeast display, Sf9 membrane polyspecificity reagent, FACS + sequencing; frameworks hold sequencing errors
Method in brief: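 Synthetic nanobody libraries on Saccharomyces cerevisiae BJ5465 were galactose-induced for 36–48 hours, stained 1 hour at 4 °C with 10% biotinylated, detergent-solubilized Sf9 membrane reagent and enriched on streptavidin microbeads. FACS then separated cells into low and high (top ~1%) gates by anti-HA (expression) and streptavidin (reagent binding) fluorescence. Genes were colony-PCR amplified, MiSeq 2 × 250 sequenced and CDR-length filtered. A clone's polyreactivity label is that of its gate of origin.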

Sequence	polyreactivity (PSR sort gate)
QVQLVESGGGLVQAGGSLRLSCAASGSISAVNAMGWYRQAPGKERELVAAITYSGGSTYYADSVKGRFTISRDHAQNTVYLQINSLKPEDTAVYNCAARARYPNWTYYYWGQGTQVTVSS	high polyreactivity
QVQLVESGGGLVQAGGSLRLSCAASGSISDVYTMGWYRQAPGKERELVAANSFSGDSTYYADSVKGRFTISRDNAKNTVYLQMNSLKPEDTAVYYCATDVGYVYGYYYWGQGTQVTVSS	low polyreactivity
QVQLVESGGGLVQAGGSLRLSCAASGSISFLYTMGWYRQAPGKERELVAAITGSTASTYYADSVKGRFTISRDNAKNTVYLQMNSLKPEDTAVYYCNADSYPGLNPDFDYWGQGTQVTVSS	low polyreactivity
QVQLVESGGGLVQAGGSLRLSCAASGSISFRYAMGWYRQAPGKDRELVAAITSGGGTTYYADSVKGRFTISRDNAKNTVYLQMNSMKPEDTAVYYCAKPRARQAFDYWGQGTQVTVSS	high polyreactivity
QVQLVESGGGLVQAGGSLRLSCAASGSISFSNAMGWYRQAPGKERELVASITSGGSTKYADSVKGRFTISRDNAKNTVFLQMNSLKPEDTAVFYCAADGYDYWGQGTQVTVSS	low polyreactivity
QVQLVESGGGLVQAGGSLRLSCAASGSISGYNAMGWYRQAPGKERELVAAISWAGGITRYADSVKGRFTISRDNAKNPVYLQMNSLKPEDTAVYYCAADQTYERHWVYYWGQGTQVTVSS	low polyreactivity
QVQLVESGGGLVQAGGSLRLSCAASGSISGYNAMGWYRQAPGKESELVAVITTDGSTNYADSEKGRFTISRDNAKNTVYLQMNSLKPEDTAVYYCNTDDGWRLLWEYDYWGQGTQVTVSS	low polyreactivity
QVQLVESGGGLVQAGGSLRLSCAASGSISGYYAMGWYRQAPGKERDLVASIRYTGARTYYADSVKGRFTISRDNAKNTVYVQMNSLKPEDTAVYYCAADVKRERVWGGDYWGLGTQVTVSS	low polyreactivity
QVQLVESGGGLVQAGGSLRLSCAASGSISGYYAMGWYRQAPGKERELVASIRYTGARTYYADSVKGRFTISRDNAKNTVYLQMNSLKPEDTAVYYGAADVKRDRVWGGDYWGQGTQVTVSS	low polyreactivity
QVQLVESGGGLVQAGGSLRLSCAASGSISHLYTMGCYRQSPGKERELVAAIRYSGGRTDYADSVKGRFTISRDNAKNTVYLQMNSLKPEDTAVYYCAAGRSFRGSYWYEYWGQGTQVTVSS	high polyreactivity
QVQLVESGGGLVQAGGSLRLSCAASGSISNRYAMGWYRQAPGKERELVAAISTGGGTTYYADSVKGRFTISRDNAKNTVYLQMNSLKPEDTAVYYCAADDWRYYRELDYWGQGTQVTVSS	low polyreactivity
QVQLVESGGGLVQAGGSLRLSCAASGSISSGYTMGWYRQAPGKERELVASIRSGGSTYYADSVKGRFTISRDNAKNTVYLQMNSLKPEDTAVYYCAARFFYRYSWGRTRGYDYWGQGTQVTVSS	high polyreactivity
QVQLVESGGGLVQAGGSLRLSCAASGSISSVNVMGWYRQAPGKERELVAAISSGTSTHYADSVKGRFTISRDNAKNTVYLQMNSLKPEVTAVYYCNKTSFLVKLDYWGQGTQVTVSS	low polyreactivity
QVQLVESGGGLVQAGGSLRLSCAASGSISTNYAMGWSRQAPGKERELVAAISSSGGSTYYADSVKGRFTISRDNAKNTVYLQMNSLKPEDTAVYYCRYKFGYWGQGTQVTVSS	high polyreactivity
QVQLVESGGGLVQAGGSLRLSCAASGSISVRNVMGWYRQAPGKERELVATIRRPGGSTSYADSVKGRFTISRDNAKNTVYLQMNSLKPEDTAVYYCAAVGYTTYRRYDYWGQGTQVTVSS	low polyreactivity
QVQLVESGGGLVQAGGSLRLSCAASGSISVVNMGWYRQAPGKERELVASITSSGSTTYADSVKGRFTISRDNAKNTVYLQMNSLKPEDTAVYYCAAVRCRSQPYWYHSMDHWGQGTQVTVSS	low polyreactivity
QVQLVESGGGLVQAGGSLRLSCAASGSISVWYVMGWYRPAPGTERELVAAITRSGGSTFYADSVKGRFTISRDNAKNTVYLQMNSLKPEDTAVYYCAADGGVAWGYGYWGQGTQVTVSS	low polyreactivity
QVQLVESGGGLVQAGGSLRLSCAASGSISVYNAMGWYRQAPGKERELVAAISWSGGRTSYADSVKGRFTISRDNAKNTVYLQMNSLKPEDTAVYYCAADELTVLWDEDYWGQGTQVTVSS	low polyreactivity
QVQLVESGGGLVQAGGSLRLSCAASGSISYPYDMGWYRQAPGKDRELVAAISGSGGRTYYADSLKGRFTLSRDTAKNTVYLQMNSLKPEVTAVYYCAAERGAYRGVTFTYGYWGQGTQVTVSS	high polyreactivity
QVQLVESGGGLVQAGGSLRLSCAASGSISYQNAMGWYRQAPGKERELVAAISGDGDSTYYADSVKGRFTISRDNAKNTVYLQMNSLKPEDTAVYYCAAEPNVYFSVFVLFPYDYWGQGTQVTVSS	low polyreactivity
QVQLVESGGGLVQAGGSLRLSCAASGSISYTYAMGWYRQATGKERELVASISYSEGITYYADSVKGRFTISRDNAKNTVYLQMNSLKPEDTAVYYCAVEGVYPYYDQSEYDYWGQGTQVTVSS	high polyreactivity
QVQLVESGGGLVQAGGSLRLSCAASGSISYVYAMGWYRQAPGKERELFAAISYSDGSTYYADSVKGRFTISRDNAKNTVYLQMISLKPEDTAVYYCAADAVYPFPYYWEYYYWGQGTQVTVSS	high polyreactivity

Sequence	polyreactivity (PSR sort gate)
QVQLVESGGGLVQAGGSLRLSCAASGSITYLYAMGSYRQAPGKERELLASITWSGGSTYYADSVKGRFTISRDNAKNTVYLQMNSLKPEDTAVYDCAALYQPFPWTWDGYYWGQGTQVTVSS	low polyreactivity
QVQLVESGGGLVQAGGSLRLSCAASGSIVGSYAMGWYRQAPGKERELVAGIRSGGSTYYADSVKGRFTISRDNAKNTVYLQMNSLKPEDTAVYYCAGHEEYWGHGTQVTVSS	low polyreactivity
QVQLVESGGGLVQAGGSLRLSCAASGSIVPTYAMGWYRQAPGKERELVAAIRSGSNTYYADSVKGRFTISRDNAKNTVYLQMNSLKPEDTAVYYCNVGPQRKYPGRRTVPFGYWGQGTQVTVSS	low polyreactivity
QVQLVESGGGLVQAGGSLRLSCAASGSIYAINVMGWYRQAPGKERDFDAAISVRSGSTYYADSVKGRITISRDNAKNTVYLQMNSLKPEDTAVIYCAARTSRFWRGGGLDYWGQGTQVTGSS	high polyreactivity
QVQLVESGGGLVQAGGSLRLSCAASGSIYARNAMGWYRQAPGKERELVAAIRYSGGSTYYADSVKGRFTISRDNAKNTVYLQMNSLKPEDTAVYYCAARWGVFGYYYWGQGTQVTVSS	high polyreactivity
QVQLVESGGGLVQAGGSLRLSCAASGSIYDYNTMGWYRQAPGKERELVAAISASGGRTYYADSEKGRFTISRDNAKNTVYLQMNSLKPEDTAVYYCARYYIGYYERFGYDYWGQGTQVTVSS	high polyreactivity
QVQLVESGGGLVQAGGSLRLSCAASGSIYFLYAMGWYRQAPGKERELVAAISWSVDRTYYADSVKGRFTISRDNAKNTVYLQMNSLKPEDTAVYYCAAVHWWSSSLRMYYWGQGTQVTVSS	low polyreactivity
QVQLVESGGGLVQAGGSLRLSCAASGSIYGRNAMGWYRQAPGKERELFAAISSSGGRTYYADSVKGRFTISRDNAKNTVYLQMNSLKPEDTAVYYCAADASYARYYSQYDYWGQGTQVTVSS	high polyreactivity
QVQLVESGGGLVQAGGSLRLSCAASGSIYIVNVMGWYRQAPGKERELVAGITTNGGITYYADSVKGRFTISRDNAKNTVYLQMNSLKPEDTAVYYCATRSGSPSSIEMDYWGQGTQVTVSS	low polyreactivity
QVQLVESGGGLVQAGGSLRLSCAASGSIYPFYAMGWYRQAPGKERELVATISSGDSTHYADSVKGRFTISRDNAKNTVYEQMNSLKPEDTAVYYCNRRNKAQRFFDLGYWGQGTQVTVSS	low polyreactivity
QVQLVESGGGLVQAGGSLRLSCAASGSIYRYTMGWYRQAPGKERELVASISLSGGRTYYADSVKGRFTISRDNAKNTVYLQMNSLKPEDTAVYDCGTDNRYRSSGQWIRRGYWGQGTQVTVSS	high polyreactivity
QVQLVESGGGLVQAGGSLRLSCAASGSIYSYNVMGWYRQAPGKERELVAAITRSGGSTYYADSVKGRFTISRDNAKNTVYLQMNSLKPEDTAVYYCATAYYSTPFREYSYWGQGTQVTVSS	low polyreactivity
QVQLVESGGGLVQAGGSLRLSCAASGSIYTNAMGWYRQAPGKERELVAAISKRGGSTNYADSVKGRFTISRDNAKNTVYLQMNSLKPEDTAVYYCNRTGSTGYVQVWRPGDYWGQGTQVTVSS	high polyreactivity
QVQLVESGGGLVQAGGSLRLSCAASGSIYVLYAMGWYRQAPGKERELVAAISRGVGGKNYADSVKGRFTISRDNAKNTVYLQMNSLIPEDTAVYYCAAQTLRWSHYYYWGQGTQVTVSS	high polyreactivity
QVQLVESGGGLVQAGGSLRLSCAASGSIYVNKAMGWYRQAPGKERELVAAISRSGTRTYYADSVKGRFTISRDNAKNTVYLQMNSLKPEDTAVYYCAVDYYYRMDYWGQGTQVTVSS	high polyreactivity
QVQLVESGGGLVQAGGSLRLSCAASGSIYVYNAMGWYRQAPGKERELVAAIDTVGSTNYADSVKGRFTISRDNAKNTVYLQMNSLKPEDTAVYYCAVVTPYWSFYDQVIPSNYWGEGTQVTVSS	low polyreactivity
QVQLVESGGGLVQAGGSLRLSCAASGSIYWLYAMGWYRQAPGKERELVAAITWSGGRTYYADSVKGRFTISRDNAKYNVYLQMNSLKPEDTAVYYCARRQRPGYSNPARGGKYDYWGQGTQVTVSS	low polyreactivity
QVQLVESGGGLVQAGGSLRLSCAASGSIYWNTMGWYRQAPGKERELVAGISSSGDSTYYADSVKGRFTISRDNAKNTVYLQMNSLKPEDTAVYYCAARTRRFRYYYWGQGTQVTVSS	high polyreactivity
QVQLVESGGGLVQAGGSLRLSCAASGSIYYYAMGWYRQAPGKEMELVAAITRSGGGTYYADSVKGRFTISRDNAKNTVYLQMNSLKPEDTAVYYCAAARYSRAQPNWTYNYWGQGTQVTVSS	high polyreactivity
QVQLVESGGGLVQAGGSLRLSCAASGSLFQPNDRGWYRQAPGKERELVASIRGRGGDTYYADSVKGRFTISRDNAKNTVYLQMNSLKPEDTGGYDCAADYRWGQGTQVTVSS	low polyreactivity
QVQLVESGGGLVQAGGSLRLSCAASGSLFSGYTMAWYSQAPGKERELVAAITRSGGRTYYADSVKGRFTISRDNAKNTVYLQMKSLKPEVTAVNYCAAVDRRGANYNYWGQGTQVTVSS	high polyreactivity
